Measurements from US20090192084A1.

Assays:
[1] = molecular target: Ubiquitin conjugation factor E4 B, UBE4B (Ufd2ortholog) (human) (UniProt O95155); assay: Flag co-IP, MudPIT MS, MG132
VCIP135 (human) = molecular target: T1, VCIP135 (human) (UniProt Q96JH7); assay: Flag co-IP, 293 cells, MudPIT MS
T1 sequence (looked up): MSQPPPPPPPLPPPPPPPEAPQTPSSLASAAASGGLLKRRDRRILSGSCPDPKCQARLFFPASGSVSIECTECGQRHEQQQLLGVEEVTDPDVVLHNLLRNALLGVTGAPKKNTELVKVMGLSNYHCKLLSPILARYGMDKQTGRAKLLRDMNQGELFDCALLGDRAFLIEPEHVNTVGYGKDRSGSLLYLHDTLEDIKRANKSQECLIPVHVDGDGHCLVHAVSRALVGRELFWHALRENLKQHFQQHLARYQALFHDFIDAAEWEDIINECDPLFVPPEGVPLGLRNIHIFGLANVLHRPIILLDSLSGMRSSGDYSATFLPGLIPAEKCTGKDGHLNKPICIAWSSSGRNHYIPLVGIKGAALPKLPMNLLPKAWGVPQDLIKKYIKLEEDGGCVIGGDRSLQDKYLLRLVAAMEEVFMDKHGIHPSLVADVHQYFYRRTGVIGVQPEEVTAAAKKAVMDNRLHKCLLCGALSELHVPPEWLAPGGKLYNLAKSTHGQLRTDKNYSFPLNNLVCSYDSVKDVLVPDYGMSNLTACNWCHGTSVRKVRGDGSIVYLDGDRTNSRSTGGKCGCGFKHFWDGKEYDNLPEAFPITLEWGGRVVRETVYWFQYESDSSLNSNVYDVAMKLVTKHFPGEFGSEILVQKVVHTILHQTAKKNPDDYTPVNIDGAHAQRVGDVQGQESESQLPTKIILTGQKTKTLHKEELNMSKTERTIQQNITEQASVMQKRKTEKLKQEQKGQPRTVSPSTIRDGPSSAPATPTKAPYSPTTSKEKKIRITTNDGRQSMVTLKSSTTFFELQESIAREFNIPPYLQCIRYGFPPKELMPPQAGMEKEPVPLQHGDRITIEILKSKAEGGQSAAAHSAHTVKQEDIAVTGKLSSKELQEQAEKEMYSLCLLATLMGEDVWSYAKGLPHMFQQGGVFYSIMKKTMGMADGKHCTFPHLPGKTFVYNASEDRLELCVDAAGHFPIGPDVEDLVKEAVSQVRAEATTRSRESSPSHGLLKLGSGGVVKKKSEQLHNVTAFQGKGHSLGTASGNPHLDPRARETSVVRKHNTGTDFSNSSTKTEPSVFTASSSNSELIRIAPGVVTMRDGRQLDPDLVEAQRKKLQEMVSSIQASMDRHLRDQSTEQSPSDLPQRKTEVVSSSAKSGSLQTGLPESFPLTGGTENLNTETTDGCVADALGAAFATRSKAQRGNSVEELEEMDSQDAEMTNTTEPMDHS

[2] = molecular target: BTB and Kelch domain-containing protein 2, KLHL13 (human) (UniProt Q9P2N7); assay: Flag co-IP, MudPIT MS, MG132
[3] = molecular target: Bromodomain and WD-repeat domain-containing protein 2, WDR 1 I (human) (UniProt Q9BZH6); assay: Flag co-IP, MudPIT MS, MG132
Chain of Bromodomain and WD-repeat domain-containing protein 2, WDR 1 I (human) (Q9BZH6 whole entry, the tested form may be a part): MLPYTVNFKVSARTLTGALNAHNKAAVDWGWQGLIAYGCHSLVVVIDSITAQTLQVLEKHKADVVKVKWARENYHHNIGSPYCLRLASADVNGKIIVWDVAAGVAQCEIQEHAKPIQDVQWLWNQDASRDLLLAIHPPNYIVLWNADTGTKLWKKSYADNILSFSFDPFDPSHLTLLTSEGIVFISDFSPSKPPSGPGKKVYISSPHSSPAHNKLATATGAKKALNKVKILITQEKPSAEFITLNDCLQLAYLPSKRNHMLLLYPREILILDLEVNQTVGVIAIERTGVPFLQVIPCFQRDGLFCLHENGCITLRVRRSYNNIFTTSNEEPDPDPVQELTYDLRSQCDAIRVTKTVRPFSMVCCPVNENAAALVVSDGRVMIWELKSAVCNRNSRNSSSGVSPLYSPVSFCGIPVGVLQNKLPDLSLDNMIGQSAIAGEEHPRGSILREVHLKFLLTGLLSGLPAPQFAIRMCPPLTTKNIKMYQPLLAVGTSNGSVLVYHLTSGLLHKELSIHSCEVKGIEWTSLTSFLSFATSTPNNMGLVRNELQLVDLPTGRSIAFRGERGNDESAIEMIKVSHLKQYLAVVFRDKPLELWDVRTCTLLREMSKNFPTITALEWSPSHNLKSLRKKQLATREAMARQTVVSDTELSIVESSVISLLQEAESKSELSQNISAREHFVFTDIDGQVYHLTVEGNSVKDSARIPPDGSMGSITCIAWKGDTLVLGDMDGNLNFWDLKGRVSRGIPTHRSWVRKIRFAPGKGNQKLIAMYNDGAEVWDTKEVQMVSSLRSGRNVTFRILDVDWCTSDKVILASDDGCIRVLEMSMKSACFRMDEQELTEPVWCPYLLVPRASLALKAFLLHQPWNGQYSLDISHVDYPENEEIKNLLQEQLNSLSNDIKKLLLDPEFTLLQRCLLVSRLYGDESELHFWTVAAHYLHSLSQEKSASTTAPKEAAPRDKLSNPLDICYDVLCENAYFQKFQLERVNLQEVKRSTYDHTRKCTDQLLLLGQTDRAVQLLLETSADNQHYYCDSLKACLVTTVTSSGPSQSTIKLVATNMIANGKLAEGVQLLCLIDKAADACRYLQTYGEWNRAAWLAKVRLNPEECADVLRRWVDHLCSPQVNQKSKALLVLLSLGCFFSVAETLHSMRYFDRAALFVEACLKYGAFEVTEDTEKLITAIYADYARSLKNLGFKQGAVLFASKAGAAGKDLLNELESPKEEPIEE

[4] = molecular target: CUL3-interacting protein I. KLHL12 (human) (UniProt Q53G59); assay: Flag co-IP, MudPIT MS, MG132
[5] = molecular target: CUL4- and DDB I-associated WDR protein 2, WDR26 (human) (UniProt Q9H7D7); assay: Flag co-IP, MudPIT MS, MG132
Chain of CUL4- and DDB I-associated WDR protein 2, WDR26 (human) (Q9H7D7 whole entry): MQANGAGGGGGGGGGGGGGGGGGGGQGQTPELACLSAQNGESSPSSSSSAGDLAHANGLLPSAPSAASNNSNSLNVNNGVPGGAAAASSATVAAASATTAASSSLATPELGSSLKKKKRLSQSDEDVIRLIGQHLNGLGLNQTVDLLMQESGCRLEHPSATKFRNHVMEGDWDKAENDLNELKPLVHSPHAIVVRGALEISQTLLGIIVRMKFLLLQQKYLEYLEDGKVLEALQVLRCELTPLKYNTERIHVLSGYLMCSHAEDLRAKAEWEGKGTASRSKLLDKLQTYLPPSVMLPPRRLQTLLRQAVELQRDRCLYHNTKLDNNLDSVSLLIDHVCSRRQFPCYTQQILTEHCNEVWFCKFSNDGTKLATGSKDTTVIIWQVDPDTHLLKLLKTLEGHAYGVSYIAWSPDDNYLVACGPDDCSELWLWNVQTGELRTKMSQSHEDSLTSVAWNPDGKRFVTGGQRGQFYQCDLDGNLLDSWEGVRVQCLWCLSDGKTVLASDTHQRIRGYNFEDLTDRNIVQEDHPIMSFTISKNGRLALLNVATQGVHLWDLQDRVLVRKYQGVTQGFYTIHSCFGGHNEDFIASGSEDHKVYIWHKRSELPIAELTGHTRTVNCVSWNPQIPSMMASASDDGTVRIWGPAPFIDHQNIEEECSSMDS

Cullin 4B (human) = Cullin 4B (human) (UniProt Q13620); assay: Flag co-IP, MudPIT MS, MG132
Chain of Cullin 4B (human) (Q13620 other isoform, or with tags, fused parts or gaps limits assumed): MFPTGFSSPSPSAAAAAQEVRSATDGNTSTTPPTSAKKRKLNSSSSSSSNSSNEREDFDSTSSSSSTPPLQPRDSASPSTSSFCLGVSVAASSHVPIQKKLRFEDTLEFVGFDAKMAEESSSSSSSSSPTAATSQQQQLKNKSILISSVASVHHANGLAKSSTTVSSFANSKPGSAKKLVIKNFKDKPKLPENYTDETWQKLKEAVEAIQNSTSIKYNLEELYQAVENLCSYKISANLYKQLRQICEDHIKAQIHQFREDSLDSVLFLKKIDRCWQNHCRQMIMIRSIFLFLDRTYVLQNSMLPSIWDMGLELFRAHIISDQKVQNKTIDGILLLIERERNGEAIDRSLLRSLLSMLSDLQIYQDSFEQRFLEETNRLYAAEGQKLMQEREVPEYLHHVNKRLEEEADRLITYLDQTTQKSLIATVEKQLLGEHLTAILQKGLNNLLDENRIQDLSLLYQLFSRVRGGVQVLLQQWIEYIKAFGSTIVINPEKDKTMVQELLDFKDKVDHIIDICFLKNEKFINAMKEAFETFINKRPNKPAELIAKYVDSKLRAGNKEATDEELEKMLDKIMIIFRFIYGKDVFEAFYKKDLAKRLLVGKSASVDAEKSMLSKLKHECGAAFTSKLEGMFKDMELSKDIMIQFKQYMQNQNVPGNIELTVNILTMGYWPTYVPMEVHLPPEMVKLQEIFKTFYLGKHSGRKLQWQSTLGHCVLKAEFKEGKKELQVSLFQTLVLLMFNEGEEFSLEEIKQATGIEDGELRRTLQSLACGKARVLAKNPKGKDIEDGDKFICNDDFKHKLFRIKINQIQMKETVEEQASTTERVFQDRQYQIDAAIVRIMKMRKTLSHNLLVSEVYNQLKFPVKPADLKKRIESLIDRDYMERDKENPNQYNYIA

[6] = molecular target: DDB1- and CUL4-associated factor I. VprBP (human) (UniProt Q9Y4B6); assay: Flag co-IP, MudPIT MS, MG132
[7] = molecular target: E3 ubiquitin-protein ligase Topors (human) (UniProt Q9NS56); assay: Flag co-IP, MudPIT MS, MG132
Elongin B (human) = Elongin B (human) (UniProt Q15370); assay: Flag co-IP, MudPIT MS, MG132
[8] = molecular target: Kelch domain-containing protein 2, KLDC2 (human) (UniProt Q9Y2U9); assay: Flag co-IP, MudPIT MS, MG132
Chain of Kelch domain-containing protein 2, KLDC2 (human) (Q9Y2U9 whole entry, the tested form may be a part): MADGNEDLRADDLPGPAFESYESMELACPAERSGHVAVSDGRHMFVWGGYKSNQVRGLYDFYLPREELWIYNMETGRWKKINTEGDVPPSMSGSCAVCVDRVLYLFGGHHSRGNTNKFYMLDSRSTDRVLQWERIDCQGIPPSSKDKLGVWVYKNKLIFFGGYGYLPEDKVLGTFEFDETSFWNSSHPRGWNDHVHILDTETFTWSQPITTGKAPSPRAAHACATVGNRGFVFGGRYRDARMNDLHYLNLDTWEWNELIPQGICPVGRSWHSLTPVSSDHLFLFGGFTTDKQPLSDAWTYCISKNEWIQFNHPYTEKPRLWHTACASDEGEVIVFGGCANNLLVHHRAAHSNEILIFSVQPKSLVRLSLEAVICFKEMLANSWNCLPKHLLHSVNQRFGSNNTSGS

[9] = molecular target: Kelch domain-containing protein 3, KLDC3 (human) (UniProt Q9BQ90); assay: Flag co-IP, MudPIT MS, MG132
[10] = molecular target: Kelch repeat and BTB domain-containing protein 7, KBTB7 (human) (UniProt Q8WVZ9); assay: Flag co-IP, MudPIT MS, MG132
Chain of Kelch repeat and BTB domain-containing protein 7, KBTB7 (human) (Q8WVZ9 whole entry, the tested form may be a part): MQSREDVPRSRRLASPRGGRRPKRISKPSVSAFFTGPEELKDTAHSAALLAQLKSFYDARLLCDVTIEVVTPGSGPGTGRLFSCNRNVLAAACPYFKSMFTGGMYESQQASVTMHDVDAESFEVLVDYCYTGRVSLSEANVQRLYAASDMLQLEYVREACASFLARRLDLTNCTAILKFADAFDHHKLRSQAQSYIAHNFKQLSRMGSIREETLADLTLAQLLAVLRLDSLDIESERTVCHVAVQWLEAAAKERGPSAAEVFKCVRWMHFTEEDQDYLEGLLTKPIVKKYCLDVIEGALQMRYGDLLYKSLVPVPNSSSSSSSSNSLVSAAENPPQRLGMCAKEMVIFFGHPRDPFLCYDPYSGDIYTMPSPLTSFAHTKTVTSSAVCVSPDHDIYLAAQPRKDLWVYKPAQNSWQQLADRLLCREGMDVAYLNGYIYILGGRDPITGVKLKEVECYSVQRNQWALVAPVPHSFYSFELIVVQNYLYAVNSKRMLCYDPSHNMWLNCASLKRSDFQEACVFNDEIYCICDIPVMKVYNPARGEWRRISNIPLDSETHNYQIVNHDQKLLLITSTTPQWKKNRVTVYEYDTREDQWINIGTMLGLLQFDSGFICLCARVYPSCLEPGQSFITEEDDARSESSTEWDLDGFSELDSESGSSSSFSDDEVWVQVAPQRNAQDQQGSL

[11] = molecular target: RING-box protein 1, RBX1 (human) (UniProt P62877); assay: Flag co-IP, MudPIT MS, MG132
Chain of RING-box protein 1, RBX1 (human) (P62877 whole entry): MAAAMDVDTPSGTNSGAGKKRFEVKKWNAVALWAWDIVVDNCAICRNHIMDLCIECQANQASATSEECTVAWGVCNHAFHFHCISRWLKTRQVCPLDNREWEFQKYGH

endogenous NPL4 (human) = endogenous NPL4 (human) (UniProt Q8TAT6); assay: Flag co-IP, 293 cells, MudPIT MS
Chain of endogenous NPL4 (human) (Q8TAT6 other isoform, or with tags, fused parts or gaps limits assumed): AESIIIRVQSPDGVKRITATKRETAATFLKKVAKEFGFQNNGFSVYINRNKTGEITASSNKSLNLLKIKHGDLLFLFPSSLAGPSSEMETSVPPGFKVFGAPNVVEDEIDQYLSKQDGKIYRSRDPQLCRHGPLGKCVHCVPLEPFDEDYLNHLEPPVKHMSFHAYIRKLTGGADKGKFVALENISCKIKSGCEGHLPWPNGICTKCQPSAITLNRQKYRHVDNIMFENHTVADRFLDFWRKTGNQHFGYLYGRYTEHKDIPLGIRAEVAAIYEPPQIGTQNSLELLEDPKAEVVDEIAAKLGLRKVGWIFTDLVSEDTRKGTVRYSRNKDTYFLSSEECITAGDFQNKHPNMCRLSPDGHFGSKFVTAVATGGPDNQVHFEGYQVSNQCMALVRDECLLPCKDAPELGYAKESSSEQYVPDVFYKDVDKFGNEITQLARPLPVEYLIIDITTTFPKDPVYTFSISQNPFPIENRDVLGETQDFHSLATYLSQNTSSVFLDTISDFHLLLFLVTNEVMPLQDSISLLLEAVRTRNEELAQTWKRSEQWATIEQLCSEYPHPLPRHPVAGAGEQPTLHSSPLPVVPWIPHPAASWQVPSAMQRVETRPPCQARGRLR

[12] = molecular target: RING finger protein 126. RNE126 (human) (UniProt Q9BV68); assay: Flag co-IP, MudPIT MS, MG132
Chain of RING finger protein 126. RNE126 (human) (Q9BV68 2-311 limits assumed): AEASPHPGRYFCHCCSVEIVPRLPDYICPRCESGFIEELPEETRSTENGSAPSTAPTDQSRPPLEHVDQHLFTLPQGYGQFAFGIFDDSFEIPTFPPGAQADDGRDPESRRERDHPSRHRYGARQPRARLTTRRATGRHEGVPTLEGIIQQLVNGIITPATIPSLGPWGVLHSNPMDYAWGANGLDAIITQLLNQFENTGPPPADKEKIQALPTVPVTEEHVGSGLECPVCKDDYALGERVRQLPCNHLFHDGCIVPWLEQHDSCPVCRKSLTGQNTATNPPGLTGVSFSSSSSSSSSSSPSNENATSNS

UBR1 (human) = UBR1 (human) (UniProt Q8IWV7); assay: Flag co-IP, MudPIT MS, MG132

Flag-SAKS1 (from UniProt Q04323 1-297)
abundance factor (AF) [1]: 1.5
sequence count [1]: 5
spectrum count [1]: 5
sequence count (VCIP135 (human)): 2
sequence coverage (VCIP135 (human)): 2.9%
spectrum count (VCIP135 (human)): 2

Flag-UBXD7 (from UniProt O94888 1-489)
abundance factor (AF) [2]: 1.4
sequence count [2]: 4
spectrum count [2]: 4
abundance factor (AF) [3]: 1.3
sequence count [3]: 5
spectrum count [3]: 7
abundance factor (AF) [4]: 1.2
sequence count [4]: 3
spectrum count [4]: 3
abundance factor (AF) [5]: 7.2
sequence count [5]: 9
spectrum count [5]: 17
abundance factor (AF) (Cullin 4B (human)): 2.7
sequence count (Cullin 4B (human)): 10
spectrum count (Cullin 4B (human)): 11
abundance factor (AF) [6]: 0.6
sequence count [6]: 3
spectrum count [6]: 4
abundance factor (AF) [7]: 0.6
sequence count [7]: 3
spectrum count [7]: 3
abundance factor (AF) (Elongin B (human)): 9.7
sequence count (Elongin B (human)): 5
spectrum count (Elongin B (human)): 7
abundance factor (AF) [8]: 3.2
sequence count [8]: 4
spectrum count [8]: 6
abundance factor (AF) [9]: 1.7
sequence count [9]: 3
spectrum count [9]: 3
abundance factor (AF) [10]: 1
sequence count [10]: 3
spectrum count [10]: 3
abundance factor (AF) [11]: 4.1
sequence count [11]: 2
spectrum count [11]: 2
sequence count (endogenous NPL4 (human)): 14
sequence coverage (endogenous NPL4 (human)): 24.5%
spectrum count (endogenous NPL4 (human)): 33

Flag-UBXD8 (from UniProt Q96CS3 1-445)
abundance factor (AF) [12]: 1.4
sequence count [12]: 2
spectrum count [12]: 2
abundance factor (AF) (UBR1 (human)): 0.4
sequence count (UBR1 (human)): 3
spectrum count (UBR1 (human)): 3
sequence count (VCIP135 (human)): 11
sequence coverage (VCIP135 (human)): 14.1%
spectrum count (VCIP135 (human)): 12
sequence count (endogenous NPL4 (human)): 11
sequence coverage (endogenous NPL4 (human)): 20.6%
spectrum count (endogenous NPL4 (human)): 209
